Legend:
Pin1 [1] = biological target: T1, Pin1 (Homo sapiens, UniProt Q13526); test: Pin1 precipitation from interphase and mitotic HeLa extracts probed with antibodies to known mitotic phosphoproteins; format: binding
T1 construct: fusion protein containing full length Pin1 was bacterially expressed, purified; made in house
Method: (§1) To detect Pin1-binding proteins, either HeLa cells were lysed in or Xenopus extracts were diluted in a buffer (buffer A) containing 50 mM Tris-HCl, pH 8.0, 200 mM NaCl, 100 mM NaF, 1 mM sodium orthovanadate, 10% glycerol, 1% Triton X100, 10 μg/ml aprotinin, 50 μg/ml phenylmethylsulfonyl fluoride and 1 mM DTT. The lysates were preclarified with boiled S. aureus bacteria (CalBiochem) and then incubated with 10 μl of agarose beads containing various GST-Pin1 proteins or control GST for 2 h at 4° C. The precipitated proteins were washed 5 times in the same buffer and subjected to immunoblotting analysis. Immunoprecipitation and immunoblotting analysis using MPM-2 antibody (Davis et al. 1983), which was kindly provided by J. Kuang, Pin1 antibodies (Lu et al., 1996, kindly provided by M. White or newly generated), anti-phospho.Tyr antibody (UBI), anti-Cdc25C (Ogg, et al., 1994) (from H. Piwnica-Worms and Santa Cruz Biotechnology), anti-Cdc27, anti-Plk1 (Zymed), anti-Cdc2 (Solomon, M. J., M. Glotzer, T. H. Lee, M. Philippe and M. W. Kirschner. Cell 63:1013-1024 (1991), anti-human Myt1, anti-human cyclin B1 and anti-Xenopus cyclin B were performed, as described previously in Lu and Hunter, 1995; Lu et al., 1996).
Several known mitotic regulators such as cyclin B, Cdc25, Myt1, Plk1 and Cdc27 are phosphorylated at mitosis. To identify at least a few of the many Pin1 binding proteins, Pin1-binding proteins were precipitated from HeLa cells, or Xenopus extracts and probed with antibodies specific for known mitotic phosphoproteins. As shown previously, levels of Plk1 and cyclin B1 increased at mitosis, whereas similar amounts of Cdc25C were present in interphase and mitotic HeLa cells. […] Similarly, only the mitotic, but not the interphase form of Xenopus Cdc27 was precipitated by Pin1.

MPM-2 antigens = test: GST-Pin1 pull-down / depletion of MPM-2 antigens from HeLa cell extracts, MPM-2 immunoblotting; format: binding, human; settings: mitotic HeLa cell extracts, GST fusion proteins
Method: as §1
To determine whether GST-Pin1 can deplete MPM-2 antigens and to estimate what concentrations of Pin1 are required to completely deplete MPM-2 antigens, mitotic extracts were incubated with different amounts of GST-Pin1, followed by analyzing MPM-2 antigens remaining in the depleted supernatants. The total cellular Pin1 concentration in HeLa cells was estimated to be about 0.5 μM, based on immunoblotting analysis using anti-Pin1 antibodies with recombinant Pin1 protein as a standard.
To determine if the Pin1 mutants interact with mitotic phosphoproteins, GST-Pin1, -Pin1^R68,69A and -Pin1^H59A fusion proteins were incubated with interphase or mitotic HeLa cell extracts and associated proteins subjected to MPM-2 immunoblotting analysis. […] A few proteins including the most strongly reacting p55 band could still be recognized. […] Thus, mutating the residues that are implicated in binding either the substrate's putative phosphate group or the substrate's Pro residue abolish the ability of Pin1 to bind MPM-2 antigens.

Cdc25, Cdc27 = test: Binding of GST-Pin1 mutants to Cdc25 or Cdc27
Method: as §1
Several known mitotic regulators such as cyclin B, Cdc25, Myt1, Plk1 and Cdc27 are phosphorylated at mitosis. […]

mitotic GST-Cdc25 = biological target: T2, mitotic GST-Cdc25 (Xenopus laevis, UniProt P30309); test: Cdc25 activity assay (activation of cyclin B/Cdc2, H1 kinase); format: biochemical; settings: 0.67 μM protein, 1 μM mitotic Cdc25
T2 construct: made in house
T2 sequence (P30309 1-550): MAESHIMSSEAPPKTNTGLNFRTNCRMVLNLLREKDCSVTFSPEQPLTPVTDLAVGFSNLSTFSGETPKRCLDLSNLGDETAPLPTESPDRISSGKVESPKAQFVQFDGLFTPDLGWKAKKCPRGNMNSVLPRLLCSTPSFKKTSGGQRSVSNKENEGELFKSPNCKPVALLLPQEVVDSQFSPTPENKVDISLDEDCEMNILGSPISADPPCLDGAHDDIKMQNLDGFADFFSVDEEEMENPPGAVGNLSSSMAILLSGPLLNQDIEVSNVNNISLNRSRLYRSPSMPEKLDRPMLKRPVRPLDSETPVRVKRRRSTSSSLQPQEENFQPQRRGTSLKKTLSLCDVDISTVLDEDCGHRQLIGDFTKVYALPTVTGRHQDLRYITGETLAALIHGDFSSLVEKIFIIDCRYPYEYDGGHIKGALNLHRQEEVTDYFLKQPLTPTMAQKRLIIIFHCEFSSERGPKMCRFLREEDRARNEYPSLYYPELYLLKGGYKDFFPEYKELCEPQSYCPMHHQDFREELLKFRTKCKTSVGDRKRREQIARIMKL
Method: Cdc2 was assayed using histone H1 as a substrate, as previously described in Murray, 1991; Lu and Hunter, (1995).
A subthreshold concentration of GST cyclin B (10 μg) was added to 1 ml of Xenopus interphase extract for thirty min at room temperature (Solomon, M. J., M. Glotzer, T. H. Lee, M. Philippe and M. W. Kirschner, Cell 63:1013-1024 (1990). This was diluted 8 fold in XB+3 mM DTT, rotated for 1 h with 3 ml of GST agarose beads, washed 3 times in XBIP (XB+500 mM NaCl and 1% NP40+2 mM DTT), washed 2 times (once overnight) in EB (80 mM β glycerol phosphate, 15 mM EGTA, 15 mM MgCl2)+2 mM DTT, 500 mM NaCl and 1% NP40, and finally twice with EB+10 mM DTT. These Cdc25 assay beads were stored at 4° C. for up to 1 month. Mitotic GST-Cdc25 was purified by incubating 22 μg of GST-Cdc25, in a Xenopus mitotic extract for 30 min at 23° C., this was diluted 8 fold in XB and rotated with 50 μl of glutathione-Agarose beads (Sigma) for 1 hr at 4° C. The beads were washed 5 times in XB-IP, twice in XB+2 mM DTT and eluted in 25 μl XB+2 mM reduced GSH. The final concentration of Mitotic GST-Cdc25 was 0.36 mg/ml. […] Phosphoimager analysis of the H1 kinase assays were quantified by the Molecular Dynamics ImageQuant 3.3 software. […] The most reproducible way to quantify the Cdc25 activity in this assay was by determining the endpoint dilution of Cdc25 which could activate Cdc2. […]

Pin1 [2] = biological target: T1, Pin1; test: Precipitation with GST-Pin1 beads of synthesized phosphoproteins incubated with interphase and mitotic Xenopus extracts; format: binding; design: key: +: a week but above background interaction; ++: readily detectable interaction; +++: strong interaction; settings: mitotic Xenopus extracts
Method: The binding between Pin1 and all selected mitotic phosphoproteins was assayed by incubating synthesized proteins with interphase and mitotic Xenopus extracts, followed by precipitation with GST-Pin1beads. The Pin1 interactions with those proteins indicated with * were also confirmed by GST-Pin1 pull-down assay from endogenous interphase and mitotic HeLa cell extracts. +, a week but above background interaction; ++, readily detectable interaction; +++, strong interaction.
The mitotic phosphoproteins were translated in vitro using the TNT coupled transcription/translation kit (Promega) in a total volume of 10 μl in the presence of 8 μCi [^35S]methionine (1000 Ci/mmol) for 2 h at 30° C. They were then incubated in xenopus interphase and mitotic extracts as described (Stukenberg et al., 1997). These incubated clones were precipitated by Pin1 beads as described below. The Xenopus Mos and Weel clones were a kind gift of M. Murakami, G, F. Woude and J. Cooper; the Xenopus Cdc25 clone was a generous gift of W. Dunphy, T3 and T3S2 Cdc25 mutants were kindly provided by J. Maller (Izumi and Maller, 1993).
as §1
To gain a sense of the generality of the interaction between Pin1 and mitotic phosphoproteins and to confirm the Pin1 interaction with target proteins is indeed mediated by phosphorylation, the ability of Pin1 to bind other known mitotic phosphoproteins and a set of mitotic phosphoproteins identified by a systematic phosphoprotein screen (Stukenberg et al., Curr Biol 7:338-348 (1997). Proteins synthesized in vitro were phosphorylated in a cell cycle specific manner by incubating them in either Xenopus interphace or mitotic extracts. These labeled protein were subsequently incubated with GST-Pin1 beads that were extensively washed and the bound proteins analyzed by SDS-PAGE. To validate this method, Cdc25 was first tested. Again, the mitotically phosphorylated form of in vitro translated Cdc25 could be precipitated by GST-Pin1 beads. However, Cdc25 was not recognized by Pin1 if it was incubated in interphase extracts. […] Out of the 13 mitotic phosphoproteins examined, Pin1 bound 10 in a mitosis and phosphorylation-dependent manner (summarized in Table 1), including Weel, MP75 and MP110, MP75 and MP110 are Xenopus proteins related to microtubule-associated protein E-MAP-115 and the fission yeast G2 transcription factor Cdc5, respectively.

Pin1 [3] = biological target: T1, Pin1; test: Confirmation of interaction between Pin1 and predicted Pin1 substrates; settings: Pin1 binding confirmed in vitro (SC35 inferred from colocalization)
Method: On the basis of amino acid preferences deduced in the 6 positions surrounding the pS-P motif for optimal Pin1 binding, a weighted screening of the SWISS-PROT sequence database. Protein sequence database screening was performed with the program INDOVINATOR, using an entropy-based weighing technique to score for relative information content at each amino acid position flanking the pS/pT-P motif with the quantitative peptide library results, which are shown qualitatively in Table 3. […] Many of these proteins are involved in regulation of the cell cycle, cytoskeletal/spindle structure, DNA replication, transcription or RNA processing (Table 4).
Several of these predicted proteins, such as Rab4, Cdc25 and NIMA, undergo mitosis-specific phosphorylation (R. Heald and F. McKeon, Cell 61:579 (1990); E. Bailly, et al., Nature 350:715 (1991); A. Blangy, et al., Cell 83:1159 (1995): J. Kuang, et al., Mol. Biol. Cell 5:135 (1994); X. S. Ye, et al., EMBO J. 14:986 (1995)). Cdc25 and NIMA also binds to Pin1 in a phosphorylation-dependent manner, as described herein. Other proteins identified in this search, however, had not been previously suspected of interacting with Pin1; therefore, a few were further investigated as example cases. […] Thus, Pin1 binds a wide functional range of mitotic phosphoproteins.

T1 sequence (Q13526 whole entry, the tested form may be a part): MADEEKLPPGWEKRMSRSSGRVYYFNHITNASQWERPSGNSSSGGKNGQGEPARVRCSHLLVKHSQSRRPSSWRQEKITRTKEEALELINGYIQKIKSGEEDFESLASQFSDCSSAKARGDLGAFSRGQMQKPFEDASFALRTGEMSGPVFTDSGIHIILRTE

“PTP-1B: protein hyperphosphorylated during mitosis” was tested, and the “precipitation by Pin1” value (Pin1 [1]) was “not precipitated by Pin1 in either interphase or mitotic extracts”.

With “Pin1^R68,69A: Pin1 mutant with Ala substitutions at Arg68 and Arg69” the “binding of MPM-2 antigens” value (MPM-2 antigens) was “significantly reduced compared to the wild-type protein”, the “interaction with Cdc25 or Cdc27” value (Cdc25, Cdc27) was “neither mutant Pin1^R68,69A nor Pin1^H59A interacted with Cdc25 or Cdc27” and the “effect on Cdc25 activity” value (mitotic GST-Cdc25) was “neither the mutant Pin1^R68,69A at the same concentration (0.67 μM), or BSA at a 25 fold higher concentration (15 μM) had a significant inhibitory effect on Cdc25 activity”.

In the case of “Plk1: Polo-like kinase, mitotic phosphoprotein”, the “Interaction with Pin1, Mitotic” value (Pin1 [2]) is reported as “+++”, the “Binding Confirmed” value (Pin1 [3]) is reported as “Yes” and the “precipitation by Pin1” value (Pin1 [1]) is reported as “bound selectively only to the mitotically hyperphosphorylated form”.

With “Pin1^H59A: Pin1 mutant with Ala substitution at His-59” the “binding of MPM-2 antigens” value (MPM-2 antigens) was “significantly reduced compared to the wild-type protein” and the “interaction with Cdc25 or Cdc27” value (Cdc25, Cdc27) was “neither mutant Pin1^R68,69A nor Pin1^H59A interacted with Cdc25 or Cdc27”.

B1: Cdc25C: cell cycle regulatory protein, predicted Pin1 substrate; human Cdc25C in HeLa extracts (protein)
chain: STELFSSTREEGSSGSGPSFRSNQRKMLNLLLERDTSFTVCPDVPRTPVGKFLGDSANLSILSGGTPKRCLDLSNLSSGEITATQLTTSADLDETGHLDSSGLQEVHLAGMNHDQHLMKCSPAQLLCSTPNGLDRGHRKRDAMCSSSANKENDNGNLVDSEMKYLGSPITTVPKLDKNPNLGEDQAEEISDELMEFSLKDQEAKVSRSGLYRSPSMPENLNRPRLKQVEKFKDNTIPDKVKKKYFSGQGKLRKGLCLKKTVSLCDITITQMLEEDSNQGHLIGDFSKVCALPTVSGKHQDLKYVNPETVAALLSGKFQGLIEKFYVIDCRYPYEYLGGHIQGALNLYSQEELFNFFLKKPIVPLDTQKRIIIVFHCEFSSERGPRMCRCLREEDRSLNQYPALYYPELYILKGGYRDFFPEYMELCEPQSYCPMHHQDHKTELLRCRSQSKVQEGERQLREQIALLVKDMSP
With B1 the “Binding Confirmed” value (Pin1 [3]) was “Yes” and the “precipitation by Pin1” value (Pin1 [1]) was “bound selectively only to the mitotically hyperphosphorylated form”.
